The labels stand for the following.
B1: HDV Ribozyme (parent)
chain: GGCCGGCAUGGUCCCAGCCUCCUCGCUGGCGCCGGCUGGGCAACAUUCCGAGGGGACCGUCCCCUCGGUAAUGGCGAAUGGGACCCA

The variants in the series derive from B1. Kind of series: self-cleavage, relative activity (ratio to wild type); higher = more cleavage; co-transcriptional.
A45G G52C: the self-cleavage is 1.01. With A45G G52A the figure was 0.875; with A45U A87G, 0.737. For A45U A87U, the self-cleavage was found to be 0.734. Regarding A43G A87C, the self-cleavage was 0.688.

As for A43G A87G, the self-cleavage was 0.634.

For the variant A43C C61G, the self-cleavage worked out at 0.359. Consider A43C C61A, for which the self-cleavage is 0.306.

Regarding A43C C61U, the self-cleavage was 0.434. With A45C U47C the figure was 0.598. For C44U U79G the value was 0.727. Regarding C44A C66U, the self-cleavage turned out to be 0.809. With A43G G76A the figure was 0.391; with A43C G68U, 0.264. Regarding A43U U46A, the self-cleavage is 0.653. For A43C C44U, the self-cleavage was determined as 0.923.

Take A43C C44G: the self-cleavage is 0.458. As to A45G G59A, the self-cleavage came to 1.06. Regarding C44A U69A, the self-cleavage amounted to 0.727. With C44A U69C the figure was 0.677; with U46A A87C, 0.744.

Take C44U U60C: the self-cleavage was 0.872. With C44G C64U the figure was 0.686; with A45U U72A, 0.831.

For the variant A43C A56U, the self-cleavage is 0.584. For A43C C84A the value was 0.332. For A43C C84G the value was 0.237. For the variant C44A A71G, the self-cleavage is 0.427. With A45G U69C the figure was 0.72; with A45G U69G, 1.21. For A43C C57A the value was 0.785; for C44U G53C, 0.658. With C44U G53U the figure was 0.831; with A45C G67C, 0.731; with A43U C84U, 0.151. For the variant A45C C62U, the self-cleavage amounted to 0.895. For A45C A51U the value was 0.72; for A45U A83G, 0.847. On to C44G U46A, for which the self-cleavage was 0.9. With C44U G73A the figure was 0.946.

Take A45U G55C: the self-cleavage was found to be 0.956. For A45U G55U the value was 0.698. Regarding C44U U69C, the self-cleavage stood at 0.814. With C44U U69A the figure was 0.787; with A43C G73C, 0.309. For A43U U79A the value was 0.122; for A43U U79G, 0.162.

For the variant A45U U79G, the self-cleavage was determined as 0.506. Turning to A45U G74U, the self-cleavage turned out to be 0.305. With A45G G81A the figure was 0.435; with A43U C58U, 0.462. On to A42U G55A, for which the self-cleavage was found to be 0.604.

Regarding A42U G55U, the self-cleavage is 0.597. Turning to C44A G67U, the self-cleavage was found to be 0.658. In the case of C44A G67A, the self-cleavage was determined as 0.415. As for A42U U72C, the self-cleavage stood at 0.508. A42U U72A: the self-cleavage was determined as 0.511. For A45C U79G the value was 0.293; for A45C U79C, 0.0791; for A43U G50U, 0.458. With A45G G74C the figure was 0.332.

In the case of A45G G74A, the self-cleavage worked out at 0.517. With A45U C57A, the self-cleavage came to 0.906.

For the variant A42U G76U, the self-cleavage is 0.745. For U46A A78C the value was 0.131. Take C44U G81A: the self-cleavage is 0.224.

As for A43C C86U, the self-cleavage is 0.649. With C44A G81C the figure was 0.178. On to C44A G81A, for which the self-cleavage came out at 0.125. For U46A C75A the value was 0.151; for A43G C86A, 0.712; for A43G C86G, 0.727. Take A43G U47C: the self-cleavage worked out at 0.748.

Regarding C44U C75G, the self-cleavage came out at 0.106. Regarding C44U C75U, the self-cleavage came to 0.157. With A43G U69G the figure was 0.867; with A43G U69A, 0.623. With A42U G73A the figure was 0.403; with A45G G82U, 0.475; with C44U G54U, 0.799. As for C44U G54C, the self-cleavage was determined as 0.694.

In the case of A43U C48A, the self-cleavage is 0.424. For C44G G68C, the self-cleavage came out at 0.475. Take A42U C64U: the self-cleavage turned out to be 0.594.

Take C44A A70G: the self-cleavage was 0.703.

For C44A A70C, the self-cleavage was 0.465. For C44A A70U the value was 0.571; for C44G A78U, 0.19; for C44U C58U, 0.755. For A43C U69A the value was 0.532. As for A43G U46G, the self-cleavage is 0.499. For A43G U46C the value was 0.443; for A43U C61A, 0.532.

Consider A45G C63G, for which the self-cleavage came out at 0.739. For A45G C63U the value was 0.956; for C44G C58G, 0.665; for A45G G76U, 1.12. For the variant A45G U46G, the self-cleavage came out at 0.643. For A45U G50U the value was 0.793; for A43U U72C, 0.155. With A43C G53A the figure was 0.554. As for A43C G53C, the self-cleavage was 0.63.

Take A43C G53U: the self-cleavage amounted to 0.425. For the variant A45U G53C, the self-cleavage came out at 0.778.

As to A43U U69C, the self-cleavage was 0.494. With C44U G67C the figure was 0.755.

On to A43G C58U, for which the self-cleavage worked out at 0.415. With C44G G55A the figure was 0.787; with C44A G76C, 0.614. On to C44A G76U, for which the self-cleavage came out at 0.767. For the variant A45C C85G, the self-cleavage was 0.609. Consider A45C A87G, for which the self-cleavage came out at 0.554.

On to A43G G50A, for which the self-cleavage is 0.502. For A43G G50C the value was 0.739; for A43C U72A, 0.151; for A43C U72G, 0.293. With A45U A70C, the self-cleavage was 0.95. For A45U G80A, the self-cleavage is 0.205. For A43G A71U the value was 0.95; for A43G A71C, 1.01; for C44U C85G, 0.673. For A45C A70G, the self-cleavage worked out at 0.655.

On to A45C A70C, for which the self-cleavage came out at 0.615.

A45C A70U: the self-cleavage was determined as 0.508. With C44G U65G the figure was 0.688; with C44G U65C, 0.597; with A43U C75G, 0.0639. For A43U A87U the value was 0.425.

Take A43C G54A: the self-cleavage is 0.415. For C44A C48A the value was 0.88; for A45U C49U, 0.706. In the case of C44G A51G, the self-cleavage worked out at 0.653. For C44A G52C the value was 0.902; for C44G G52U, 0.727. In the case of C44G G52A, the self-cleavage was determined as 0.636. For A45U A78U the value was 0.155; for C44G G73C, 0.655. A45C G50C: the self-cleavage is 0.504. With A43U C57G the figure was 0.674; with A45U C64G, 0.671; with A45G A51U, 0.944. With A43U A45C the figure was 0.877; with A43G U79A, 0.192.

Turning to C44U U47A, the self-cleavage is 0.743. With A45U C66U the figure was 1.02; with A45U C66A, 0.812; with A45U C66G, 0.919. Take A42U C75A: the self-cleavage was 0.0405. For A45G G54C the value was 0.65; for A43U C66A, 0.415; for C44A U46A, 0.677. With C44A U46G the figure was 0.785. For the variant A43C G80C, the self-cleavage was found to be 0.194. With A43C G80U the figure was 0.0825; with C44A C86A, 1.08. C44A C86U: the self-cleavage was 1.01. Take A45G G80U: the self-cleavage is 0.151.

On to C44G A71U, for which the self-cleavage turned out to be 0.962. On to A45G C86U, for which the self-cleavage is 0.806. C44A C57U: the self-cleavage turned out to be 0.582. As to A43U G59C, the self-cleavage amounted to 0.502. A43G C49U: the self-cleavage was 0.469. With A43G G73U, the self-cleavage turned out to be 0.0755. For A43G G73C, the self-cleavage amounted to 0.256.

For C44A U79G, the self-cleavage was determined as 0.128. With C44A A51G the figure was 0.898; with C44A A51U, 1.13.
